This is an account of results in US20260209363A1 (Chugai, published 2026).

For orientation: Kd means the equilibrium constant for the complex coming apart. Low readings indicate a tighter complex, high ones a looser complex. For orientation: koff means a measure of how fast the partners let go of each other. What is called kon is a measure of how fast the partners come together. The low end stands for slow association, the high end for fast association.

In assay [1] the target is T1, human soluble IL-6R (human, UniProt P08887 20-357, limits assumed).
T1 construct: Soluble form; also called sIL6R; Human IL-6R
T1 sequence (looked up): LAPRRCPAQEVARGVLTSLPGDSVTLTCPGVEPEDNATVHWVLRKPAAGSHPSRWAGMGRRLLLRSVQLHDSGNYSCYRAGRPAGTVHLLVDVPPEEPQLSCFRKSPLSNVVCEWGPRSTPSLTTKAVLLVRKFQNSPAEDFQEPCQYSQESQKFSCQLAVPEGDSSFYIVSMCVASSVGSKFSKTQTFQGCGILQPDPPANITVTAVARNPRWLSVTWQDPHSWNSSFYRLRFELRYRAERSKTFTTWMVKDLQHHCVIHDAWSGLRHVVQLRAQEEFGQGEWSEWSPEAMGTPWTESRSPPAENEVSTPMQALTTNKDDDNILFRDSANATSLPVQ
Nature of the assay: SPR (Biacore T200), antibody captured on Protein G, human IL-6R as analyte, 37 degrees C, no albumin. Here is the method:
Binding activities of the produced albumin switch molecules against human IL-6R were evaluated using Biacore T200 (Cytiva). As the running buffer, 50 mM Na Phosphate (pH 7.4), 150 mM NaCl, 0.05% Tween20 was used, and the evaluation was performed at 37 degrees C. First, Protein G (CALBIOCHEM) was used as a ligand-capturing molecule. Protein G (CALBIOCHEM) was solid-phased on a Series S Sensor Chip CM4 (Cytiva) using an Amine Coupling Kit (Cytiva). Antibody solution prepared using the running buffer was allowed to interact with this CM4 sensor chip to capture approximately 200 RU of the antibody. Human IL-6R used in the present measurement was prepared by an approach described in WO2018097307 (Example 3-2). Human IL-6R was diluted to 0, 100, and 400 nM with the running buffer, and allowed to bind to the captured antibody. The chip was regenerated using 3 M MgCl₂, and measurements were performed by repeatedly capturing the antibodies. Dissociation constant (KD) of each antibody for human IL-6R was calculated using Biacore T200 Evaluation Software 2.0. Specifically, the association rate constant ka (L/mol/s) and the dissociation rate constant kd (1/s) were calculated by global fitting of the sensorgrams obtained by measurement with the 1:1 Langmuir binding model, and the dissociation constant KD (mol/L) was calculated from these values.

Another assay addresses T2, mouse albumin (mouse, UniProt P07724 25-608).
T2 construct: also called recombinant mouse Albumin; mouse serum albumin
As to the kind of experiment: SPR (Biacore T200), antibody captured by anti-human Fc antibody, mouse albumin as analyte, 25 degrees C. Here is the method: Binding activities of the produced antibodies against mouse albumin were evaluated using Biacore T200 (Cytiva).
As the running buffer, 50 mM Na Phosphate (pH 7.4), 150 mM NaCl, 0.05% Tween20 was used, and the evaluation was performed at 25 degrees C. First, anti-human Fc antibody (Cytiva) was used as a ligand-capturing molecule. Anti-human Fc antibody (Cytiva) was solid-phased on a Series S Sensor Chip CM4 (Cytiva) using an Amine Coupling Kit (Cytiva). Antibody solution prepared using the running buffer was allowed to interact with this CM4 sensor chip to capture approximately 120 RU of the antibody. Mouse albumin (Bioscience) was diluted to 0 and 300 nM with the running buffer and allowed to bind to the captured antibody. The chip was regenerated using 3 M MgCl₂, and measurements were performed by repeatedly capturing the antibodies. Dissociation constant (KD) of each antibody for mouse albumin was calculated using Biacore T200 Evaluation Software 2.0. Specifically, the association rate constant ka (L/mol/s) and the dissociation rate constant kd (1/s) were calculated by global fitting of the sensorgrams obtained by measurement with the 1:1 Langmuir binding model, and the dissociation constant KD (mol/L) was calculated from these values.
Background: Surface plasmon resonance follows binding to a sensor surface in real time, without labels.

Assay [2] addresses T1, human soluble IL-6R. Nature of the assay: in vivo KD in mouse plasma (albumin present), from total antibody, free and bound sIL6R 5 min after sIL6R; antibody 1 mg/kg IV. Here is the method: (§1) Next, free sIL6R in plasma was measured. The concentration of free sIL6R in plasma was measured on a fully automated ELISA system (Gyrolab xP workstation). First, sIL6R prepared at 23.4, 46.9, 93.8, 188, 375, 750, and 1500 ng/mL using a Protein-Free (PBS) Blocking Buffer (Thermo Scientific) was used as solutions for preparing the calibration curve. Mouse plasma samples were used in the measurements without diluting them. A solution of biotin-labeled H54 diluted to 10 micro g/mL using a Protein-Free (PBS) Blocking Buffer was used as a solution of the sIL6R-capturing molecule. Alexa Fluor (registered trademark) 647-labeled anti-human IL-6R antibody (R&D Systems) diluted to 1 micro g/mL using a Protein-Free (PBS) Blocking Buffer was used as a solution of the human IL-6R-detection molecule. PBS (pH 7.4) containing 0.05% TWEEN was used as a washing solution. The calibration curve solutions, mouse plasma samples, sIL6R-capturing molecule solution, sIL6R-detection molecule solution, and the washing solution were placed onto a PCR plate, and then the PCR plate was sealed with a plate sealer. After the PCR plate and the Bioaffy 200 disc were placed in the Gyrolab xP workstation, measurements were taken. Using the data processed by the Gyros Evaluater 3.6.2.30 software and the calibration curve concentrations, the concentration of free sIL6R in plasma was calculated by logistic regression using the XLfit 5.5.0.5 software.
Additionally, bound sIL6R in plasma was measured. The concentration of bound sIL6R in plasma was measured on an electrospray ionization mass spectrometer connected to a high-performance liquid chromatography (LC/ESI-MS/MS). First, H54//IC17 and sIL6R were mixed, and solutions for preparing the calibration curve of bound sIL6R were prepared at theoretical plasma concentrations of 0.0468, 0.467, 4.60, and 20.1 nmol/mL. The solutions for preparing the calibration curve and 1 or 2 micro L of a plasma sample were added to 75 or 150 micro g of magnetic beads (Magnosphere MS300/Carboxyl, JSR) to which anti-delta GK antibodies were solid-phased, and this was shaken at 25 degrees C. for one hour.

In assay [3] the target is T1, human soluble IL-6R. As to the kind of experiment: in vivo KD in mouse plasma (albumin present), from total antibody, free and bound sIL6R 5 min after sIL6R; antibody 0.2 mg/kg IV. As for the experimental part:
as §1
Additionally, bound sIL6R in plasma was measured. The concentration of bound sIL6R in plasma was measured on an electrospray ionization mass spectrometer connected to a high-performance liquid chromatography (LC/ESI-MS/MS). First, H54//IC17 and sIL6R were mixed, and solutions for preparing the calibration curve of bound sIL6R were prepared at theoretical plasma concentrations of 0.0468, 0.467, 4.60, and 20.1 nmol/mL. […]

Assay [4] deals with T1, human soluble IL-6R. Nature of the assay: Gyrolab xP immunoassay of antibody-antigen complex in C57BL/6J mouse plasma (albumin present), 1 nM antibody, 4 nM antigen.

B1: ABD094(L)-H54//IC17 (bispecific antibody, human IgG1, kappa)
heavy 1: QVQLQESGPGLVKPSETLSLTCAVSGYSISDDQAWSWVRQPPGEGLEWIGYISYSGITNYNPSLKGRVTISRDTSKNQFSLKLSSVTAADTAAYYCARSLARTTAMDYWGEGTLVTVSSASTKGPSVFPLAPSSKSTSGGTAALGCLVEDYFPEPVTVSWNSGALTSGVHTFPAVLQSSGLYSLSSVVTVPSSSLGTQTYICNVNHKPSNTKVDERVEPKSCDKTHTCPPCPAPELRRGPSVFLFPPKPKDTLMISRTPEVTCVVVDVSHEDPEVKFNWYVDGVEVHNAKTKPREEQYNSTYRVVSVLTVLHQDWLNGKEYKCKVSNKALPAPIEKTISKAKGQPREPQVCTLPPSREEMTKNQVSLSCAVKGFYPSDIAVEWESNGQPENNYKTTPPVLDSDGSFFLVSKLTVDKSRWQQGNVFSCSVMHEALHNHYTQKSLSLSP
light 1: LAEAKEAANAELDSYGVSDFYKRLIDKAKTVEGVEALKDAILAALPDIQMTQSPSSLSASVGDSVTITCQASQDISSYLNWYQQKPGKAPELLIYYGSELHSGVPSRFSGSGSGTDFTFTISSLEAEDAATYYCQQGNSLPYTFGQGTKVEIERTVAAPSVFIFPPSDRKLKSGTASVVCLLNNFYPREAKVQWKVDNALQSGNSQESVTEQDSKDSTYSLSSTLTLSKADYEKHKVYACEVTHQGLSSPVTKSFNRGEC
heavy 2: not shown
light 2: QVQLQQSGPQLVRPGASVKISCKASGYSFTSYWMHWVNQRPGQGLEWIGMIDPSYSETRLNQKFKDKATLTVDKSSSTAYMQLSSPTSEDSAVYYCALYGNYFDYWGQGTTLTVSSASVAAPSVFIFPPSDEQLKSGTASVVCLLNNFYPREAKVQWKVDNALQSGNSQESVTEQDSKDSTYSLSSTLTLSKADYEKHKVYACEVTHQGLSSPVTKSFNRGEC
With B1, the dissociation constant Kd with human soluble IL-6R [1] came to 2.65 nM; with mouse albumin it was 11.6 nM; in the assay with human soluble IL-6R [2], 57.3 nM; with human soluble IL-6R [3], 49.1 nM. For the same molecule, the koff with human soluble IL-6R [1] worked out at 0.00118 s⁻¹; with mouse albumin it was 0.00131 s⁻¹. In addition, the kon in the assay with human soluble IL-6R [1] stood at 445000 M⁻¹ s⁻¹; in the assay with mouse albumin, 113000 M⁻¹ s⁻¹.

B2: ABD094(H/L).N02-H54//IC17 (bispecific antibody, human IgG1, kappa)
heavy 1: LAEAKEAANAELDSYGVSDFYKRLIDKAKTVEGVEALKDAILAALPGGGGSQVQLQESGPGLVKPSETLSLTCAVSGYSISDDQAWSWVRQPPGEGLEWIGYISYSGITNYNPSLKGRVTISRDTSKNQFSLKLSSVTAADTAAYYCARSLARTTAMDYWGEGTLVTVSSASTKGPSVFPLAPSSKSTSGGTAALGCLVEDYFPEPVTVSWNSGALTSGVHTFPAVLQSSGLYSLSSVVTVPSSSLGTQTYICNVNHKPSNTKVDERVEPKSCDKTHTCPPCPAPELRRGPSVFLFPPKPKDTLMISRTPEVTCVVVDVSHEDPEVKFNWYVDGVEVHNAKTKPREEQYNSTYRVVSVLTVLHQDWLNGKEYKCKVSNKALPAPIEKTISKAKGQPREPQVCTLPPSREEMTKNQVSLSCAVKGFYPSDIAVEWESNGQPENNYKTTPPVLDSDGSFFLVSKLTVDKSRWQQGNVFSCSVMHEALHNHYTQKSLSLSP
light 1: LAEAKEAANAELDSYGVSDFYKRLIDKAKTVEGVEALKDAILAALPGGGGSDIQMTQSPSSLSASVGDSVTITCQASQDISSYLNWYQQKPGKAPELLIYYGSELHSGVPSRFSGSGSGTDFTFTISSLEAEDAATYYCQQGNSLPYTFGQGTKVEIERTVAAPSVFIFPPSDRKLKSGTASVVCLLNNFYPREAKVQWKVDNALQSGNSQESVTEQDSKDSTYSLSSTLTLSKADYEKHKVYACEVTHQGLSSPVTKSFNRGEC
heavy 2: not shown
light 2: B1 light 2
With B2, the “decrease in the signal derived from the complex, compared to H54//IC17” value with human soluble IL-6R [4] was 55%.

B3: ABD094(H/L).N10-H54//IC17 (bispecific antibody, human IgG1, kappa)
heavy 1: LAEAKEAANAELDSYGVSDFYKRLIDKAKTVEGVEALKDAILAALPGQVQLQESGPGLVKPSETLSLTCAVSGYSISDDQAWSWVRQPPGEGLEWIGYISYSGITNYNPSLKGRVTISRDTSKNQFSLKLSSVTAADTAAYYCARSLARTTAMDYWGEGTLVTVSSASTKGPSVFPLAPSSKSTSGGTAALGCLVEDYFPEPVTVSWNSGALTSGVHTFPAVLQSSGLYSLSSVVTVPSSSLGTQTYICNVNHKPSNTKVDERVEPKSCDKTHTCPPCPAPELRRGPSVFLFPPKPKDTLMISRTPEVTCVVVDVSHEDPEVKFNWYVDGVEVHNAKTKPREEQYNSTYRVVSVLTVLHQDWLNGKEYKCKVSNKALPAPIEKTISKAKGQPREPQVCTLPPSREEMTKNQVSLSCAVKGFYPSDIAVEWESNGQPENNYKTTPPVLDSDGSFFLVSKLTVDKSRWQQGNVFSCSVMHEALHNHYTQKSLSLSP
light 1: LAEAKEAANAELDSYGVSDFYKRLIDKAKTVEGVEALKDAILAALPGDIQMTQSPSSLSASVGDSVTITCQASQDISSYLNWYQQKPGKAPELLIYYGSELHSGVPSRFSGSGSGTDFTFTISSLEAEDAATYYCQQGNSLPYTFGQGTKVEIERTVAAPSVFIFPPSDRKLKSGTASVVCLLNNFYPREAKVQWKVDNALQSGNSQESVTEQDSKDSTYSLSSTLTLSKADYEKHKVYACEVTHQGLSSPVTKSFNRGEC
heavy 2: not shown
light 2: B1 light 2
notes: ABD094 linked via N10 linker (G) at VH and VL N-termini of the IL-6R arm; also called ABD094(H/L).NTO-H54//IC17; ABD094(H/L).NO-H54//IC17
As to B3, in the assay with human soluble IL-6R [4], the “decrease in the signal derived from the complex, compared to H54//IC17” value came to 95%.
